Laboratory results reported in WO2012075111A1 (dated 2012).

Assays:
[1] = target: human CD40 (human) (UniProt P25942); assay: Biacore
[2] = target: T1, soluble CD40 (Homo sapiens (Human), UniProt P25942 20-193); assay: ELISA-type assays
T1 construct: Soluble CD40 as used in ELISA-type assays; the real soluble form is shorter
T1 sequence (P25942 20-193): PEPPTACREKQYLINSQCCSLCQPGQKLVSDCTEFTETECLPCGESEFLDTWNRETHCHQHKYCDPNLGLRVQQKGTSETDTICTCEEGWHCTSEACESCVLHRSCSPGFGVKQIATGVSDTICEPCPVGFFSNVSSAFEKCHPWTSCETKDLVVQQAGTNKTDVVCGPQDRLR

Kd [1]: 0.5 nM | binding result [2]: binds
B1: monoclonal antibody HCD122 (antibody, human IgG1, kappa, V domains shown)
VH: QVQLVESGGGVVQPGRSLRLSCAASGFTFSSYGMHWVRQAPGKGLEWVAVISYEESNRYHADSVKGRFTISRDNSKITLYLQMNSLRTEDTAVYYCARDGGIAAPGPDYWGQGTLVTVSS
VL: DIVMTQSPLSLTVTPGEPASISCRSSQSLLYSNGYNYLDWYLQKPGQSPQVLISLGSNRASGVPDRFSGSGSGTDFTLKISRVEAEDVGVYYCMQARQTPFTFGPGTKVDIRR
notes: Fully human IgG1 kappa anti-CD40 monoclonal antibody from the hybridoma deposited as ATCC PTA-5543; also called CHIR-12.12
